The target of the experiment is T1, PSGL-1-NH2/CD34-COOH (UniProt Q14242 18-117; P28906 30-385).
T1 construct: range mature amino terminus-117;range 30-end (end not numbered), on cells; Cotransfected with FTVIIh; also called PSGL-1 apical domain on CD34
T1 sequence: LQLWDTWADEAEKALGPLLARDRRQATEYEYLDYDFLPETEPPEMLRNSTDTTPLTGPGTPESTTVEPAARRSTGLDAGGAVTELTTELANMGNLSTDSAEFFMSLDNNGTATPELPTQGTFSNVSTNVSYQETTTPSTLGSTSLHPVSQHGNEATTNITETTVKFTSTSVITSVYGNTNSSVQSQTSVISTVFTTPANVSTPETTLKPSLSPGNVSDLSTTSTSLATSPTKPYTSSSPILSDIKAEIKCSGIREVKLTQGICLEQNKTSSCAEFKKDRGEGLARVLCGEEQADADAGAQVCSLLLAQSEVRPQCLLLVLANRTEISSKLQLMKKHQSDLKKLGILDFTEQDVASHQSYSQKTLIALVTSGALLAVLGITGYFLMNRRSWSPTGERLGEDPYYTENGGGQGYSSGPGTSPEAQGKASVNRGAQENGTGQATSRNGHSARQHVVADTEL
In words: adhesion of 51Cr-labelled transfected COS cells to immobilized P-selectin:Ig.

Protocol: To assess the importance of these residues, the tyrosines were converted to phenylalanine (FIG. 9A). In a second peptide, the threonines were converted to alanines. In addition, a third peptide, containing a quintuple mutation, was prepared such that both conversions were made in a single peptide. […] Cells expressing the resulting chimeras were tested for their ability to bind to immobilized P-selectin (FIG. 9A). […] Expression of the flu tag or sLe^x epitope was not affected in these cells.

B1: P-selectin:immunoglobulin fusion protein (Fc fusion, UniProt P16109 42-321, looked up)
chain: WTYHYSTKAYSWNISRKYCQNRYTDLVAIQNKNEIDYLNKVLPYYSSYYWIGIRKNNKTWTWVGTKKALTNEAENWADNEPNNKRNNEDCVEIYIKSPSAPGKWNDEHCLKKKHALCYTASCQDMSCSKQGECLETIGNYTCSCYPGFYGPECEYVRECGELELPQHVLMNCSHPLGNFSFNSQCSFHCTDGYQVNGPSKLECLASGIWTNKPPQCLAAQCPPLKIPERGNMTCLHSAKAFQHQSSCSFSCEEGFALVGPEVVQCTASGVWTAPAPVCKA
notes: domain: lectin, EGF-related, and first two short consensus repeat related domains; Made in COS cells; captured from supernatant on wells coated with goat anti-human IgG Fc; also called soluble P-selectin; P-selectin Ig chimera; not shown: hinge, CH2, and CH3 domains of human IgG1
For B1, the binding result is reported as “binds”.

For the origin of these results see patent publication US7399847 (GENERAL HOSPITAL, dated 2008).
